Measurements from the nanobody polyreactivity screen of Harvey et al. (2022).

Assay: yeast display, Sf9 membrane polyspecificity reagent, FACS + sequencing; frameworks hold sequencing errors
How it was run: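 Synthetic nanobody libraries on Saccharomyces cerevisiae BJ5465 were galactose-induced for 36–48 hours, stained 1 hour at 4 °C with 10% biotinylated, detergent-solubilized Sf9 membrane reagent and enriched on streptavidin microbeads. FACS then separated cells into low and high (top ~1%) gates by anti-HA (expression) and streptavidin (reagent binding) fluorescence. Genes were colony-PCR amplified, MiSeq 2 × 250 sequenced and CDR-length filtered. A clone's polyreactivity label is that of its gate of origin.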

Sequence	polyreactivity (PSR sort gate)
QVQLVESGGGLVQAGGSLRLSCAASGRIFKYYAMGWYRQAPGKNRELVATISVSGANTYYADSVKGRFTISRDNAKNPVYLQMNSLKREDTAVYFCAAGYAGVSHITRTSRKSHYGYWGQGTQVTVSS	high polyreactivity
QVQLVESGGGLVQAGGSLRLSCAASGSIFYIYAMGWYRKAPGKERELVASIDSGDSTNYADSVKGRFTISRDNAKNTVYLQMNSLKPEDTAVYYCNADTFSELTYYLYIGMDYWGQGTQVTVSS	low polyreactivity
QVQLVESGGGLVQAGGSLRLTCAASGRIFKRYVMGWYRQAPGKERELVAAISVRGASTYYADSVKGRFTISRDHAKNTVYLQMNSLKPEDTAVYYCATAGYRLLDYWGQGTQVTVSS	high polyreactivity
QVQLVESGGCLVQAGGSLRLSCAASGNIFGIYTMGLYTHAPGKERELVASIRTGGSTNYADSVKGRFTISRDNAKNTDYLQMNSLKPEDSSVYYCNARKLFSSSYGYWGQGTQVTVSS	high polyreactivity
QVQLVESGGGLVQAGGSLRLSCAASGSIFVRNAMGWYRQAPGKEREFVATITSSGGTTYYADSVKGRFTISRDNAKNTVYLQMNSLKPDDTAVYYCNADAGWYDWVYYVGRDYWGQGTQVTVSS	low polyreactivity
QFQLVESGGGLVQAGGSLRLSCAASGRIFRYYSMGCYIQSPGKERELVAAITRGGSTNYADSVKGRFTISGDNANNNVYLQMNSLKPEDSAVYYCAVRGCYTWPTYNYWGHGTQVTVSS	high polyreactivity
QVQLVESGGGLVQAGGSLRLSCAASGFIFRKYAMGWYRQAPGKERELVAAITSSGGSTYYAGSVKGRFTISRDNAKNTVYLQMNSLKPEDTAVYYCAARLKQSGHDYWGQGTQVTVSS	high polyreactivity
QVQLVESGGGLVQAGGSLRLSCAASGSIFFDGNAMGWYRQAPGKERELVAAISVSGGSTYYADSVKGRFTISRDNAKNTVYLQMNSLKAEDTAVYYCAKYPSKSYVPGDYWGQGTQVTVSS	low polyreactivity
QVQLVESGGGLVQAGGSLRLSCAASGSIFYDNGMGWYRQAPGKERELVAAISRGGTTNYADSVKGRFTISRDKAKNTVYLQMNSLKPEDTAVYYCNAETRFTYWGSWYDYWGQGTQVTVSS	low polyreactivity
QVQLVESGGGLVQAGGSHRLSCAASGSTRYYMGWYRQAPGKEREFVARITWSGTRTYYADSVKGRFTISRDNAKNTVYLQMNSLKPEDTAVYYCNAGVVWGQGTQVTVSS	high polyreactivity
QVQLVESGGGLVQAGGTLRLICAASGSTLYWNAMGLYRQAPGKQRELVAGISIGGRTNYADSVKGRFTISRDNAKNTVYLQMISLKPEDTAVYYCNAENTYLGSRYRPYNYWGQGTQVTVSS	low polyreactivity
QVQLVESGGGLVQAGGSLRLSYAASGSIFGRYVMGWYRQAPGKERELVAAIKRSGGRTYYADSVKGRFTISRDNAKNTVYLQMNSLKPEDTAVYYCATYTGYSASKEVPYDYWGQGTQVTVSS	high polyreactivity
HVQLVESGGGLVQAGGSLRLSCAASGGISIDNVMGWYRQATGKERELVAAISKSGGRTFYADSVKGRFTISRDNAKNTVYLQMNSLKPEDTAVYYCAKLYISKPYWYEHEYWGQGTQVTVSS	high polyreactivity
QVQLVESGGGLVHAGGSLRLSCAASRYTFVNYAMGWYSQAPGKERELVAAITSRGSSTYYADSVKGRFTLSRDNAKNTVYLQMNSLNPEDTAVYYCYVHVRNHDYWGEGTQVTVSS	high polyreactivity
QVQLVESGGGLVQAGGSLRLSCAASGGTFKSAYVMGWYRQAPGKERELVAAIDSTGSTNYADSVKGRFTISRDNAKNTVYLQMNSLKPEDTAVYYCNADRRELYYDPMDYWGQGTQVTVSS	low polyreactivity
QVQLVESGGGLVQAGGSLRLSCAASGFISKYYAMGRYRQAPGKERELVASISRDGSTSYADSVKGRFTISRDNAKNTVYLQMNSLKPEDTAVYYCAAPSYRTRYYYWGQGTQVTVSS	high polyreactivity
QVQLVESGGGLVQAGGSLRLSCAASGRTFRYYAMGWYRQAPGKERELVAAISSRGNTYYADSVKGRFTISRDNAKNTVYLQLNSLKPEDTAVYYCAAYVYRVQYDFVYWGQGTQVTVSS	high polyreactivity
QVQLVESGGGLVQAGGSLRLSCAASGISFNGNAMGWYRQAPGKERELVAAISGSGGSTYYADSVKGRFTISRDNAKNSVYLQMNSLKQEDTAVYYCNALYGRRVYVGYDYWGQGSQVTVSS	high polyreactivity
QVQIVESGGGLVQEGGSLRLSFAASGSTFYYYPMGWYRQAPGKERELVAAITSGDTTNYADSVKGRFTISRDNAKNTVYLQMNSLKPEDTAVYYCAVDLNTTAFYPVAATYLDDYWGQGTQVTVSS	low polyreactivity
QVQLVESGGGLVQAGGSLRLSCAASGRIFSYMGWYRQAPGKERELVASISWSGGSTYYADSVKGRFTISRDNAKNTVYLQMNSLKPEDTAVYYCAAYLRSYVRYYYWGQGTQVTVSS	high polyreactivity
QVQLVESGGGLDQAGGSLRLSCPASGRIFPINAMGRYRQAPGKERELVAAISYSRGSTYYADSVKGRFTISRDNAKNTVYLQMNSLKPEDTAVYYCNARYPYSYYHRYYYWGQGTQVSVSS	high polyreactivity
QFQLVESVGCLVQAGGSLRLSCAASGILFSWYAMGWYRQPPGKERELVAAISKGGGSTYYADSVKGRFTISRDNAKNTVYLQMNSLIPEDTAVYYCAADSSYGYGYWGQGTQVTVSS	high polyreactivity

Sequence	polyreactivity (PSR sort gate)
QVQHVESGGCLVQAGGSLRLSCAASGSIFSYYDMGWYRHAPGKERELVAAIRGSGGITYADSVKGRFTISRDNAKNTVYLQMNSLKPEETAVYYCAADQYYRSDYYYWGQGTQVTVSS	low polyreactivity
QVQLVESGGGLVQAGGSLRLSCAASGSIFTYYVMGWYRQAPGKERELVAAITRSGGRTYYADSVKGRFTISRDNAKNTVYLQMNSLKPEDTAVYYCAARKYTGSGSRYYYWGQGTQVTVSS	high polyreactivity
QVQLVESGGGLVQAGGSLRLRCAASGSTFYGYVMGWYRQAPGQERELVAAITNRAGSTYYADSVKARFTISRDNAKNTVYVQMNSLKPEDTAVYYCNARRPAKSRYRHVYWGQVTQVTVSS	high polyreactivity
QVQLVESGGVLVQAGGIIRLSCAASGFIFVRYAMGWYRQAPGTERELVASIRSVGRTNYADSVKGRFTISRDNAKNTVYLQMNSLKPEDTAVYYCAAGYGSRSRPRGGYWGQGTQVTVSS	high polyreactivity
QVQLVESGGGLVQAGGSLRLSCAAYGIIFWINSMGRYRPAPGKEREVVAAITSGGTTYYADSVKGRFTISRDNGKNTVYLQMNILKPEDTAVYYCAARVRGARDYYWGQGTQVTVSS	high polyreactivity
QFQLVESGGGLVQAGGSLRLSCAASGYTFAVNTMGWYRQAPGKESELVAAITLGGGSTYYADSVKGRFTISRDNAKNTVYLQMNSLKPEDTAVYYCATDPVDYRGWWRGYKYDYWGQGTQVTVSS	low polyreactivity
QVQLVESGGGLVQAGGSLRLSCAASGRIFNRNAMGWYRQAPGKEREFVAAISRSGGTTYYADSVKGRFTFSRDNAKNTVYLQINSLKPEDTAFYYCNAVRYQTEVDYWGQGTQVTVSS	high polyreactivity
QVQLLESGGGLVQARGSLRLICAASGRIFTDNAMGWYIQAPGKERELVATISKRGGRTYYADSVKGRFTISRDNAKNTVYLQMNSLKPEDTAVYYCNARPYWIDGSGLFPYDYWGQGTQVTVSS	high polyreactivity
QVQLVESGGGLVQAGGSLRLSCAASGITIYKYAMGWYRQAPGKERELVAAITRGGSTYYADSVKGRFTISRDNAKNSVYLQMNSLKPEDTAVYYCNKVYHWQTPGFGYGYWGQGTQVTVSS	high polyreactivity
QVQLVESGGGLVQAGGSLRLSCAASGNIFVRYAMGWYRQAPGKEREFVAAISSSGGSTRYADSVKGRFTISRDNAKNTVYLQMNSLKPEDTAVYYCAATRVARHGSPMYYWGQGTQVTVSS	high polyreactivity
QVQLVESGGGLVQPGGSLRLSCAASGSILKSYAMGWYRQAPGKERELVAAITYRDGSTYYAHSVKGRFTISRDNSKNTVYLQMNSLKPVDTAVYYCAAEPSWWNVFYPGYNYWGQGTQVTVSS	high polyreactivity
QVQLVESGGGLVQAGGSLRLSCAASGSTIYFNAMGWYRQAPGKERELVAAIDWSGGSTYYADSVKGRFTISRDNAKNTFYLHMNSLKPEDTAVYYCAAAYHYYGNTVGYADYDYWGQGNQVTVSS	low polyreactivity
QVQLVESGGGLVQAGGSLRLSCAASGFIFRDYVMGWYRQAPGKERELVAAISYRDGSTYYADSVKGRFTISRDNAKNTVYLQMNSLKPEDTAVYYCNAPGYQGYEYWGQGTQVTVSS	low polyreactivity
QVQLVESGGGLVQAGGSLRLSCAASGKTFPANAMGWYRPAPGKERELVADISVSDGSTYYADSVKGRFTISRDNAKNTVYLQMNSLKPQDTAVYYCNARKRPNFYVKSFTQIGGRFDYWGQGTQVTVSS	low polyreactivity
QVQLVESGGGLVQAGGSLRLSCAASGSTFYFNAMGWYRQAPGKERELVATIRSGDSTYYADSVKGRFTISSDNAKNTVYLQMNSLKPVDTAVYSCPGPLPYYGQYDYWGQGTQVTVSS	low polyreactivity
QVQLVESGGGLVQAGGSLRLSCAASGNIFFGNTMGWYRQAPGKERELVAAISRSGGSTYYADSVKGRFTISRDNAKNTVYLQMNSLKPEDTAVYYCAAEYYGWPYDSWGQGTQVTVSS	high polyreactivity
QVQLVESGGGLVQAGGSLRLSCAASGITFGRNTMGWYRQAPGKERELVAAIDSGGNTYADSVKWRFTISRDNAKNTVYLQMNSLKPEDTAVYYCAADIGSWYDYWGQGTQVTVSS	low polyreactivity
QVQLVESGGGLVQAGGSLRLICAASGRNFTKYAMGLYRQAPGKERELVAAINFRGDRTYYADSVKGRYTISRDNAKNTVYLQMNSLKPEDTAVYYCAAEWSTYWLFNYEYWGQGTQVTVSS	high polyreactivity
QVQLVESGGGLVQARGSLRLSCAASGTIFASNAMGWLRKAPGKVRELVAAINSGGNTYADSVKGRFTITRDNAKNTVYVHMNSLKPEDTAVYYCAVVWNWCSGLSPGYPEFDYWGQGTQVTVSA	low polyreactivity
QVQLVESGGGLVQAGGSLRLSCAASGSTFIRNAMGWYRQAPGKERELVAAINSGGNTYYADSVKGRFTISRDNAKNTVYLQMNSLKPEDTAVYYCAKAWGTYRSVYYRGYYWGQGTQVTVSS	high polyreactivity
QVQLVESGGGLVQAGGSLRLSCAASGFTFDFYAMGWYRQAPGKERELVASIRWSGGSTYYADSVKGRFTISRDNAKNTVYLQMNSLKPEDTAVYYCAKSIASAAYDSWGQGTQVTVSS	low polyreactivity
